Test results taken from the supplement of paper PMC11246515.
± gives the standard deviation of the averaged measurements.

Assay: total protein half-life in vivo (active degradation + dilution); higher = more stable protein
[1] = E. coli NCM3722 delta-clpP, growth: N-lim chemostat, doubling time 6 h
[2] = E. coli NCM3722 delta-hslV, growth: N-lim chemostat, doubling time 6 h
[3] = E. coli NCM3722 delta-lon, growth: N-lim chemostat, doubling time 6 h
[4] = E. coli NCM3722 delta-smpB, growth: N-lim chemostat, doubling time 6 h
[5] = wild type E. coli NCM3722, growth: C-lim chemostat, doubling time 3 h
[6] = wild type E. coli NCM3722, growth: C-lim chemostat, doubling time 6 h
[7] = wild type E. coli NCM3722, growth: C-lim chemostat, doubling time 12 h
[8] = wild type E. coli NCM3722, growth: N-lim chemostat, doubling time 6 h
[9] = wild type E. coli NCM3722, growth: N-lim chemostat, doubling time 12 h
[10] = wild type E. coli NCM3722, growth: P-lim chemostat, doubling time 6 h
[11] = wild type E. coli NCM3722, growth: P-lim chemostat, doubling time 12 h
[12] = E. coli NCM3722 delta-clpP delta-lon delta-hslV, growth: N-lim chemostat, doubling time 6 h

| Sequence | total protein half-life in vivo [1] [h] | total protein half-life in vivo [2] [h] | total protein half-life in vivo [3] [h] | total protein half-life in vivo [4] [h] | total protein half-life in vivo [5] [h] | total protein half-life in vivo [6] [h] | total protein half-life in vivo [7] [h] | total protein half-life in vivo [8] [h] | total protein half-life in vivo [9] [h] | total protein half-life in vivo [10] [h] | total protein half-life in vivo [11] [h] | total protein half-life in vivo [12] [h] |
| --- | --- | --- | --- | --- | --- | --- | --- | --- | --- | --- | --- | --- |
| MIYLRKANERGHANHGWLDSWHTFSFANYYDPNFMGFSALRVINDDVIEAGQGFGTHPHKDMEILTYVLEGTVEHQDSMGNKEQVPAGEFQIMSAGTGIRHSEYNPSSTERLHLYQIWIMPEENGITPRYEQRRFDAVQGKQLVLSPDARDGSLKVHQDMELYRWALLKDEQSVHQIAAERRVWIQVVKGNVTINGVKASTSDGLAIWDEQAISIHADSDSEVLLFDLPPV | 4.3 ± 0.072 | 4.52 ± 0.68 | 4.67 ± 0.054 | 4.36 ± 0.26 | 2.84 ± 0.096 | 5.31 ± 0.29 | 8.6 ± 2.5 | 4.51 ± 0.2 | 7.3 ± 0.36 | 5.54 ± 0.17 | 11.6 ± 0.069 |  |
| MIKATDRKLVVGLEIGTAKVAALVGEVLPDGMVNIIGVGSCPSRGMDKGGVNDLESVVKCVQRAIDQAELMADCQISSVYLALSGKHISCQNEIGMVPISEEEVTQEDVENVVHTAKSVRVRDEHRVLHVIPQEYAIDYQEGIKNPVGLSGVRMQAKVHLITCHNDMAKNIVKAVERCGLKVDQLIFAGLASSYSVLTEDERELGVCVVDIGGGTMDIAVYTGGALRHTKVIPYAGNVVTSDIAYAFGTPPSDAEAIKVRHGCALGSIVGKDESVEVPSVGGRPPRSLQRQTLAEVIEPRYTELLNLVNEEILQLQEKLRQQGVKHHLAAGIVLTGGAAQIEGLAACAQRVFHTQVRIGAPLNITGLTDYAQEPYYSTAVGLLHYGKESHLNGEAEVEKRVTASVGSWIKRLNSWLRKEF [P0ABH0] | 6.41 ± 0.51 | 6.33 ± 0.27 | 6.06 ± 0.5 | 5.42 ± 0.13 | 3.04 ± 0.12 | 5.738 ± 0.047 | 10 ± 0.52 | 5.48 ± 0.26 | 10.8 ± 0.71 | 5.868 ± 0.02 | 11.3 ± 0.42 | 6.03 ± 0.16 |
| MGNTSIQTQSYRAVDKDAGQSRSYIIPFALLCSLFFLWAVANNLNDILLPQFQQAFTLTNFQAGLIQSAFYFGYFIIPIPAGILMKKLSYKAGIITGLFLYALGAALFWPAAEIMNYTLFLVGLFIIAAGLGCLETAANPFVTVLGPESSGHFRLNLAQTFNSFGAIIAVVFGQSLILSNVPHQSQDVLDKMSPEQLSAYKHSLVLSVQTPYMIIVAIVLLVALLIMLTKFPALQSDNHSDAKQGSFSASLSRLARIRHWRWAVLAQFCYVGAQTACWSYLIRYAVEEIPGMTAGFAANYLTGTMVCFFIGRFTGTWLISRFAPHKVLAAYALIAMALCLISAFAGGHVGLIALTLCSAFMSIQYPTIFSLGIKNLGQDTKYGSSFIVMTIIGGGIVTPVMGFVSDAAGNIPTAELIPALCFAVIFIFARFRSQTATN |  |  |  |  |  | 3.02 | 4.27 ± 0.49 |  |  |  |  |  |
| MDKELPWLADNAQLELKYKKGKTPLSHRRWPGEPVSVITGSLIQTLGDELLQKAEKKKNIVWRYENFSLEWQSAITQAINLIGEHKPSIPARTMAALACIAQNDSQQLLDEIVQQEGLEYATEVVIARQFIARCYESDPLVVTLQYQDEDYGYGYRSETYNEFDLRLRKHLSLAEESCWQRCADKLIAALPGINKVRRPFIALILPEKPEIANELVGLECPRTHFHSKEWLKVVANDPTAVRKLEHYWSQDIFSDREASYMSHENHFGYAACAALLREQGLAAIPRLAMYAHKEDCGSLLVQINHPQVIRTLLLVADKNKPSLQRVAKYHKNFPHATLAALAELLALTEPPARPGYPIIEDKKLPAQQKARDEYWRTLLQTLMASQPQLAAEVMPWLSTQPQSVLKSYLSAPPKPVIDGTDNSNLPEILVSPPWRSKKKMTAPRLDLAPLELTPQVYWQPGEQERLAATEPARYFSTESLAQRMEQKSGRVVLQELGFGDDVWLFLNYILPGKLDAARNSLFVQWHYYQGRVEEILNGWNSPEAQLAEQALRSGHIEALINIWENDNYSHYRPEKSVWNLYLLAQLPREMALTFWLRINEKKHLFAGEDYFLSILGLDALPGLLLAFSHRPKETFPLILNFGATELALPVAHVWRRFAAQRDLARQWILQWPEHTASALIPLVFTKPSDNSEAALLALRLLYEQGHGELLQTVANRWQRTDVWSALEQLLKQGPMDIYPARIPKAPDFWHPQMWSRPRLITNNQTVTNDALEIIGEMLRFTQGGRFYSGLEQLKTFCQPQTLAAFAWDLFTAWQQAGAPAKDNWAFLALSLFGDESTARDLTTQILAWPQEGKSARAVSGLNILTLMNNDMALIQLHHISQRAKSRPLRDNAAEFLQVVAENRGLSQEELADRLVPTLGLDDPQALSFDFGPRQFTVRFDENLNPVIFDQQNVRQKSVPRLRADDDQLKAPEALARLKGLKKDATQVSKNLLPRLETALRTTRRWSLADFHSLFVNHPFTRLVTQRLIWGVYPANEPRCLLKAFRVAAEGEFCNAQDEPIDLPADALIGIAHPLEMTAEMRSEFAQLFADYEIMPPFRQLSRRTVLLTPDESTSNSLTRWEGKSATVGQLMGMRYKGWESGYEDAFVYNLGEYRLVLKFSPGFNHYNVDSKALMSFRSLRVYRDNKSVTFAELDVFDLSEALSAPDVIFH |  |  |  |  |  |  |  |  |  |  |  | 6.38 |
| MIIHFTLNGAPQELTVNPGENVQKLLFNMGMHSVRNSDDGFGFAGSDAIIFNGNIVNASLLIAAQLEKADIRTAESLGKWNELSLVQQAMVDVGVVQSGYNDPAAALIITDLLDRIAAPTREEIDDALSGLFSRDAGWQQYYQVIELAVARKNNPQATIDIAPTFRDDLEVIGKHYPKTDAAKMVQAKPCYVEDRVTADACVIKMLRSPHAHALITHLDVSKAEALPGVVHVITHLNCPDIYYTPGGQSAPEPSPLDRRMFGKKMRHVGDRVAAVVAESEEIALEALKLIDVEYEVLKPVMSIDEAMAEDAPVVHDEPVVYVAGAPDTLEDDNSHAAQRGEHMIINFPIGSRPRKNIAASIHGHIGDMDKGFADADVIIERTYNSTQAQQCPTETHICFTRMDGDRLVIHASTQVPWHLRRQVARLVGMKQHKVHVIKERVGGGFGSKQDILLEEVCAWATCVTGRPVLFRYTREEEFIANTSRHVAKVTVKLGAKKDGRLTAVKMDFRANTGPYGNHSLTVPCNGPALSLPLYPCDNVDFQVTTYYSNICPNGAYQGYGAPKGNFAITMALAELAEQLQIDQLEIIERNRVHEGQELKILGAIGEGKAPTSVPSAASCALEEILRQGREMIQWSSPKPQNGDWHIGRGVAIIMQKSGIPDIDQANCMIKLESDGTFIVHSGGADIGTGLDTVVTKLAAEVLHCPPQDVHVISGDTDHALFDKGAYASSGTCFSGNAARLAAENLREKILFHGAQMLGEPVADVQLATPGVVRGKKGEVSFGDIAHKGETGTGFGSLVGTGSYITPDFAFPYGANFAEVAVNTRTGEIRLDKFYALLDCGTPVNPELALGQIYGATLRAIGHSMSEEIIYDAEGHPLTRDLRSYGAPKIGDIPRDFRAVLVPSDDKVGPFGAKSISEIGVNGAAPAIATAIHDACGIWLREWHFTPEKILTALEKI |  |  |  |  |  |  | 9.16 |  |  |  |  | > 8 |
| MSHPALTQLRALRYCKEIPALDPQLLDWLLLEDSMTKRFEQQGKTVSVTMIREGFVEQNEIPEELPLLPKESRYWLREILLCADGEPWLAGRTVVPVSTLSGPELALQKLGKTPLGRYLFTSSTLTRDFIEIGRDAGLWGRRSRLRLSGKPLLLTELFLPASPLY | 2.28 ± 0.017 | 3.04 ± 0.035 | 3.5 ± 0.31 | 2.14 ± 0.061 | 2.41 ± 0.13 | 4.27 ± 0.27 | 7.06 ± 0.53 | 3.15 ± 0.3 | 4.66 ± 0.034 | 4.77 ± 0.55 | 8.85 ± 0.47 | 4.9 ± 0.4 |
